Assay results published in US20060067886A1, “Gastrin receptor-avid peptide conjugates” (priority 1997, published 2006).
Where two headings read alike, the source gives them in different places.

Experiments:
[1] = biological target: T1, GRP receptors on Swiss 3T3 cells (Mus musculus, UniProt P21729); assay: Competitive cell binding vs 125I-Tyr4-BBN, Swiss 3T3 cells
T1 construct: endogenous in cells; host or cells: Swiss 3T3 mouse fibroblasts (whole cells)
Procedure: The binding affinities of the synthetic BBN derivatives were assessed for GRP receptors on Swiss 3T3 cells and, in some cases, on a variety of human cancer cell lines, that express GRP receptors. […] The cell binding assay methods used to measure the IC50's is standard and used techniques previously reported [Jensen et al., 1993; Cai et al., 1994; Cai et al., 1992]. The methods used for determining IC50's for all GRP receptor binding compounds on all cell lines was similar. The specific method used to measure IC50's on Swiss 3T3 cells is briefly described as follows:
(§1) Swiss 3T3 mouse fibroblasts are grown to confluence in 48 well microtiter plates. […] The growth media was removed, the cells were washed twice with incubation media, and incubation media was returned to the cells. ^125I-Tyr4-BBN (0.01 uCi) was added to each well in the presence of increasing concentrations of the appropriate competitive peptide. Typical concentrations of displacing peptide ranged from 10-12 to 10-5 moles of displacing ligand per well. The cells were incubated at 37° C. for forty minutes in a 95% […]/5% CO2 humidified environment. At forty minutes post initiation of the incubation, the medium was discarded, and the cells were washed twice with cold incubation media. The cells were harvested from the wells following incubation in a trypsin/EDTA solution for five minutes at 37° C. Subsequently, the radioactivity, per well, was determined and the maximum % total uptake of the radiolabeled peptide was determined and normalized to 100%.
The binding affinities of the synthetic BBN derivatives were assessed for GRP receptors on Swiss 3T3 cells, PC-3 cells and CF PAC-1 cells. The IC50's of each of derivative were determined relative to (i.e., in competition with) ^125I-Tyr^4-BBN. The cell binding assay methods used to measure the IC50's is standard and was used by techniques previously reported [Jensen et al., 1993; Cai et al., 1992; Cai et al., 1994]. The methods used for determining IC50's with all BBN analogue binding to GRP receptors present on all three cell lines were similar. The specific method used to measure IC50's on Swiss 3T3 cells, is briefly described as follows:
as §1, with “microliter” for “microtiter”, “^125I-Tyr^4-BBN” for “^125I-Tyr4-BBN”, “μCi)” for “uCi)”, “10^−12” for “10-12”, “10^−5” for “10-5”, “100%. A similar procedure was used in performing cell binding assays with both the PC-3 and CFa-PAC-1 human cancer cell lines.” for “100%.”

Swiss 3T3 cells = assay: Internalization and efflux, Swiss 3T3 cells; assay type: cell-based, mouse; details: sixty minutes / one hour post-washing
Procedure: After establishment of equilibrium after a forty minute incubation, the media surrounding the cells was removed and the cells were washed with fresh media containing no radioactivity. […] The cells were then incubated in a 0.2M acetic acid solution (pH 2.5) which caused the surface proteins (incl., GRP receptors) to denature and release all surface bound radioactive materials. After removing this buffer and washing, the cells were counted again.
To determine intracellular retention, a similar method was employed. […] FIG. 12 is a graph of results of efflux experiments using Swiss 3T3 cells with ^125I-Lys^3-BBN.

in vivo = details: SCID, mouse, in vivo, iv, 4 uCi, total radioactivity, Avg % ID, Muscle
Procedure: (§2) In vivo pharmacokinetic studies in human tumor bearing SCID mice. […] The xenograft models were produced by bilateral flank inoculation of 5×10^6 cells (PC-3 or MDA-MB-231 cells) per site. Four to six weeks post inoculation, palpable tumors were observed. At this point, the mice were injected with 4 μCi of the complex in […] of isotonic saline via the tail vein. The mice were euthanized and tissues and organs were excised from the animals at selected times post-injection (p.i.), including 15 minutes, 30 minutes, 1 hour, 4 hours, 24 hours, 48 hours, and 72 hours p.i. Subsequently, the tissues and organs were weighed and counted in a NaI well counter and the percent injected dose (% ID) and % ID/g of each organ or tissue calculated.
(§3) The mice were injected with 4 μCi of the complex in 100 μL of isotonic saline via the tail vein. The mice were euthanized by cervical dislocation. Tissues and organs were excised from the animals following at 1 hour, 4 hour, and 24 hours post-injection (p.i.). Subsequently, the tissues and organs were weighed and counted in a NaI well counter and the percent injected dose (% ID) and % ID/g of each organ or tissue calculated.

[2] = tested on: PC-3 human tumor xenografts; assay: Single dose radiotherapy in PC-3 tumor bearing SCID mice; assay type: in vivo; details: up to 20 mCi/kg single dose
From the text: In vivo pre-clinical evaluation of single dose radiotherapy in human tumor bearing SCID mice. […] The xenograft model was produced by bilateral flank inoculation of 5×10^6 PC-3 cells per site. […] Baseline weights, hematology profiles, and tumor measurements were obtained immediately prior to therapy administration. Four groups of animals were utilized; a saline placebo, a 5 mCi/kg single dose, a 10 mCi/kg single dose, and a 20 mCi/kg single dose. Tumor measurements and weights were obtained twice weekly throughout the 14 weeks post injection.

[3] = Biodistribution of radiometal-DOTA-BBN conjugates in CF1 normal mice; details: 1 hour post-injection
[4] = tested on: MDA-MB-231 human tumor xenografts;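 further: SCID mice bearing bilateral flank PC-3 or MDA-MB-231 xenografts, tail-vein dosing, organs sampled from 15 min to 72 h post-injection, radioactivity measured with NaI well counter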
[5] = tested on: PC-3 human tumor xenografts; assay: in vivo
Procedure: as §2, §3

T1 sequence (P21729 whole entry): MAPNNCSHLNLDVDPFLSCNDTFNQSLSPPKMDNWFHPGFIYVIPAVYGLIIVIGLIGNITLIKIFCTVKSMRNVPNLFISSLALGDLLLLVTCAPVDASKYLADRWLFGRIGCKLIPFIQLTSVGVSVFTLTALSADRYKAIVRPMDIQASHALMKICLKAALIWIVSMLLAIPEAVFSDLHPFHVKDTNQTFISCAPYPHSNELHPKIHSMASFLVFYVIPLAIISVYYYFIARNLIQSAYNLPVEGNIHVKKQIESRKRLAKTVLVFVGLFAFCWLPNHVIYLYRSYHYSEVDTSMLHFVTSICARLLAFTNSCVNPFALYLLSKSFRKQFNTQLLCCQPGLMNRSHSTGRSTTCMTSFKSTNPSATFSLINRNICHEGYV

CC(C)C[C@H](NC(=O)[C@H](Cc1c[nH]cn1)NC(=O)CNC(=O)[C@@H](NC(=O)[C@H](C)NC(=O)[C@H](Cc1c[nH]c2ccccc12)NC(=O)[C@H](CCC(N)=O)NC(=O)CCCCNC(=O)COC1CSCCCSCCCSCCCSC1)C(C)C)C(N)=O [105Rh-BBN-61]
IC50 [1]: 4.1 nM
activity remaining associated with the cells (Swiss 3T3 cells): less than 10%

CSCC[C@H](NC(=O)[C@H](CC(C)C)NC(=O)[C@H](Cc1cnc[nH]1)NC(=O)CNC(=O)[C@@H](NC(=O)[C@H](C)NC(=O)[C@H](Cc1c[nH]c2ccccc12)NC(=O)[C@H](CCC(N)=O)NC(=O)CCCCCCCNC(=O)CN1CCN(CC(=O)O)CCN(CC(=O)O)CCN(CC(=O)O)CC1)C(C)C)C(N)=O [90Y-DOTA-8-Aoc-BBN[7-14]NH2, metal not drawn]
tissue uptake dose at 4 h (in vivo; 4 hrs): 0.01 ± 0.01 %ID
tissue uptake dose at 48 h (in vivo; 48 hrs): 0.01 ± 0.02 %ID
tissue uptake dose at 72 h (in vivo; 72 hrs): 0.01 ± 0.02 %ID
tolerability of radiation doses [2]: well tolerated

CSCC[C@H](NC(=O)[C@H](CC(C)C)NC(=O)[C@H](Cc1cnc[nH]1)NC(=O)CNC(=O)[C@@H](NC(=O)[C@H](C)NC(=O)[C@H](Cc1c[nH]c2ccccc12)NC(=O)[C@H](CCC(N)=O)NC(=O)CCCCCCCNC(=O)CN1CCN(CC(=O)O)CCN(CC(=O)O)CCN(CC(=O)O)CC1)C(C)C)C(N)=O [111In-DOTA-8-Aoc-BBN[7-14]NH2] [metal not drawn]
Avg % ID, Blood [3]: 0.66 ± 0.13 % ID
Avg % ID, Carcass [3]: 5.01 ± 0.47 % ID
Avg % ID, Liver [3]: 1.02 ± 0.08 % ID
Avg % ID, Lung [3]: 0.07 ± 0.02 % ID
Avg % ID/gm, Heart [3]: 0.05 ± 0.02 % ID/gm
Avg % ID/gm, Kidney [3]: 2.37 ± 0.31 % ID/gm
Avg % ID/gm, L. Intestine [3]: 2.66 ± 1.07 % ID/gm
Avg % ID/gm, Lung [3]: 0.31 ± 0.07 % ID/gm
Avg % ID/gm, S. Intestine [3]: 4.43 ± 0.90 % ID/gm
initial tumor uptake retained ([4]; 4 hours): 46%
initial tumor uptake retained ([4]; 24 hours): 28%
Avg % ID, Blood ([5]; 1 hr): 0.92±0.58 % ID
Avg % ID, Carcass ([5]; 1 hr): 13.55 ± 6.05 % ID
Avg % ID, Liver ([5]; 1 hr): 1.41 ± 0.32 % ID
Avg % ID, Lung ([5]; 1 hr): 0.09 ± 0.07 % ID
Avg % ID, Pancreas ([5]; 1 hr): 3.49 ± 2.15 % ID
Avg % ID, Spleen ([5]; 1 hr): 0.09 ± 0.07 % ID
Avg % ID/gm, Liver ([5]; 1 hr): 1.34 ± 0.25 % ID/gm
Avg % ID/gm, Lung ([5]; 1 hr): 0.50 ± 0.39 % ID/gm
Avg % ID/gm, Pancreas ([5]; 1 hr): 18.80 ± 10.97 % ID/gm
Avg % ID/gm, Spleen ([5]; 1 hr): 1.39 ± 1.17 % ID/gm
Avg % ID, Carcass ([5]; 4 hrs): 2.92 ± 0.64 % ID
Avg % ID, L. Intestine ([5]; 4 hrs): 6.04 ± 2.05 % ID
Avg % ID, Liver ([5]; 4 hrs): 1.57 ± 0.72 % ID
Avg % ID, Muscle ([5]; 4 hrs): 0.0 ± 0.00 % ID
Avg % ID, Tumor ([5]; 4 hrs): 0.18 ± 0.17 % ID
Avg % ID/gm, Blood ([5]; 4 hrs): 0.27 ± 0.02 % ID/gm
Avg % ID/gm, Liver ([5]; 4 hrs): 1.44 ± 0.57 % ID/gm
Avg % ID/gm, Spleen ([5]; 4 hrs): 1.59 ± 0.27 % ID/gm
Avg % ID/gm, Stomach ([5]; 4 hrs): 0.96 ± 0.57 % ID/gm
excretion through the renal pathway ([5]; 24 hours p.i.): 87 % ID
Avg % ID, Carcass ([5]; 24 hrs): 1.69 ± 0.56 % ID
Avg % ID, Heart ([5]; 24 hrs): 0.00 ± 0.01 % ID
Avg % ID, Pancreas ([5]; 24 hrs): 1.19 ± 0.49 % ID
Avg % ID, Stomach ([5]; 24 hrs): 0.09 ± 0.02 % ID
Avg % ID/gm, Blood ([5]; 24 hrs): 0.10 ± 0.03 % ID/gm
Avg % ID/gm, Kidney ([5]; 24 hrs): 1.18 ± 0.14 % ID/gm
Avg % ID/gm, Lung ([5]; 24 hrs): 0.09 ± 0.07 % ID/gm
Avg % ID/gm, Pancreas ([5]; 24 hrs): 6.78 ± 1.15 % ID/gm
Avg % ID/gm, S. Intestine ([5]; 24 hrs): 0.89 ± 0.16 % ID/gm
Avg % ID/gm, Spleen ([5]; 24 hrs): 0.46 ± 0.20 % ID/gm
Avg % ID/gm, Stomach ([5]; 24 hrs): 0.30 ± 0.05 % ID/gm
Avg % ID, Carcass ([5]; 48 hrs): 0.57 ± 0.02 % ID
Avg % ID, Muscle ([5]; 48 hrs): 0.00 ± 0.00 % ID
Avg % ID/gm, Spleen ([5]; 48 hrs): 0.22 ± 0.22 % ID/gm
Avg % ID, Heart ([5]; 72 hrs): 0.00 ± 0.00 % ID
Avg % ID, Lung ([5]; 72 hrs): 0.00 ± 0.00 % ID
Avg % ID, Muscle ([5]; 72 hrs): 0.00 ± 0.00 % ID
Avg % ID/gm, Blood ([5]; 72 hrs): 0.01 ± 0.02 % ID/gm
Avg % ID/gm, Heart ([5]; 72 hrs): 0.01 ± 0.01 % ID/gm
Avg % ID/gm, Kidney ([5]; 72 hrs): 0.20 ± 0.02 % ID/gm
Avg % ID/gm, Muscle ([5]; 72 hrs): 0.01 ± 0.02 % ID/gm
